The record followed here is patent US20100311955A1 (SHANHAI GUOJIAN BIO TECH INSTITUTE, published 2010).

Where “and” joins values, the source holds several entries; their conditions need not be identical. Equal entries are not always repeated.

Broadly, the IC50 is the point on the concentration scale where inhibition reaches its midpoint. Read a high IC50 as a need for much substance.

Assay [1] concerns the target human CD34 (antigen on human myeloid leukemia cell KG-1a) (human) (UniProt P28906). Nature of the assay: flow cytometry competition on KG-1a cells, competitor FITC-My10; single test. A general note: A flow cytometer gives signals particle by particle.
Assay [2] has the same target. The assay can be described thus: flow cytometry competition on KG-1a cells, competitor FITC-My10; mean of 3 tests.
Assay [3] deals with T1, human CD34 (antigen on human myeloid leukemia cell KG-1a) (human, UniProt P28906 32-385).
T1 construct: whole, on cells; Target in all assays is CD34 on KG-1a cells, which highly express it; also called antigen CD34
T1 sequence (looked up): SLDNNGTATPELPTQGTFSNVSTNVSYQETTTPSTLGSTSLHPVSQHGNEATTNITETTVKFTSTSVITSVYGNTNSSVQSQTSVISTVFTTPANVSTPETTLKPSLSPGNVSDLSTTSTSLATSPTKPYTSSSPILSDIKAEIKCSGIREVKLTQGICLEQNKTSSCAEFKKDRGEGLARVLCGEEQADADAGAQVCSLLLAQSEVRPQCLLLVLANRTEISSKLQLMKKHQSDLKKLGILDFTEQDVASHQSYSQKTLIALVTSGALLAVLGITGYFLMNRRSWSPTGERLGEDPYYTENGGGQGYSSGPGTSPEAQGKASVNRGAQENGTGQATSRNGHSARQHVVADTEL
Nature of the assay: flow cytometry competition on KG-1a cells, competitor FITC-4C8. As for the experimental part:
A fixed subsaturating concentration of fluorescently labeled antibody FITC-4C8 and serial dilution of unlabeled purified antibodies were mixed respectively and then added into target KG-1a cells (1×10⁶/ml), and incubated at 4° C. for 60 min, the cells were washed twice with 1% FCS-PBS and examined by FCM using Cellquest software for analysis. Humanized anti-CD3 monoclonal antibody hu12F6 (preparation see to Li B H, Wang H, Dai J X, Ji J J, Qian W Z, Zhang D P, Hou S, Guo Y J. Construction and characterization of a humanized anti-human CD3 monoclonal antibody 12F6 with effective immunoregulation functions. Immunology 2005, 116(4):487-98) was used as control. Triplicate tubes were set for each concentration of the competitive antibody. The IC₅₀ values were calculated, with the maximum fluorescence intensity indicating the average fluorescence intensity obtained in the absence of competitive antibody.

The target of assay [4] is T1, human CD34 (antigen on human myeloid …). Nature of the assay: flow cytometry competition on KG-1a cells, competitor FITC-My10; single test. As for the experimental part: (§1) Immunology. 2005, 116(4):487-98) was used as control. Triplicate tubes were set for each concentration of the competitive antibody. The IC₅₀ values were calculated, with the maximum fluorescence intensity indicating the average fluorescence intensity obtained in the absence of competitive antibody. Repeating this test for 3 times, and gaining statistical the result, see to Table 2.

For assay [5] the target is unchanged. The assay can be described thus: flow cytometry competition on KG-1a cells, competitor FITC-My10; mean of 3 tests. The protocol:
as §1

With “murine-derived monoclonal antibody My10 (anti-CD34)”, the IC50 in assay [1] was 8.67 µg/mL and 9.23 µg/mL and 8.18 µg/mL; in assay [2], 8.69 µg/mL.

B1: humanized antibody h4C8 (h4C8Hb/h4C8Lb) (antibody, human IgG1, V domains shown)
VH: QIQLVQSGSELKKPGASVKVSCKASGYTFTNYGMNWVRQAPGQGLKWMGWINTNTGEPKYAEEFKGRFALSLDTSVSTAYLQINSLKAEDTAVYFCARGYGNYARGAWLAYWGQGTLVTVSS
VL: DVLLTQSPLSLPVTLGQPASISCRSSQTIVHSNGNTYLEWFQQRPGQSPRLLIYQVSNRFSGVPDRFSGSGSGTDFTLKISRVEAEDVGVYYCFQGSHVPRTFGGGTKVEIKR
notes: CDR-grafted antibody with nine murine framework residues kept; also called humanized anti-CD34 antibody; hu4C8
Take B1: the IC50 is 1.76 µg/mL in assay [3]; 1.11 µg/mL and 1.14 µg/mL and 1.02 µg/mL in assay [4]; 1.09 µg/mL in assay [5].

B2: anti-human CD34 monoclonal antibody 4C8 (antibody, V domains shown)
VH: QIQLVQSGPELKKPGETVNISCKASGYTFTNYGMNWVKQAPGKGLKWMGWINTNTGEPKYAEEFKGRFALSLETSASTAYLQINNLKNEDTATYFCARGYGNYARGAWLAYWGQGTLVTVSA
VL: DVLLTQTPLSLPVSLGDQASISCRSSQTIVHSNGNTYLEWFLQKPGQSPKLLIYQVSNRFSGVPDRFSGSGSGTDFTLKISRVEAEDLGVYYCFQGSHVPRTFGGGTKLEIKR
notes: Mouse hybridoma antibody purified on Protein G; also called murine-derived monoclonal antibody 4C8; FITC-4C8
In turn, B2 displayed a half-maximal inhibitory concentration (IC50) in assay [3] of 1.72 µg/mL.

B3: chimeric antibody c4C8 (antibody, human IgG1, kappa, V domains shown)
VH: QIQLVQSGPELKKPGETVNISCKASGYTFTNYGMNWVKQAPGKGLKWMGWINTNTGEPKYAEEFKGRFALSLETSASTAYLQINNLKNEDTATYFCARGYGNYARGAWLAYWGQGTLVTVSA
VL: DVLLTQTPLSLPVSLGDQASISCRSSQTIVHSNGNTYLEWFLQKPGQSPKLLIYQVSNRFSGVPDRFSGSGSGTDFTLKISRVEAEDLGVYYCFQGSHVPRTFGGGTKLEIKR
notes: also called 4C8 chimeric antibody
Turning to B3, the IC50 in assay [3] was found to be 1.69 µg/mL.
